Results on 2 molecules are retold here after patent US20110178017A1 (PHASEBIO PHARMACEUTICALS, published 2011).

Holding throughout (experiment): cell-based or functional assay
Experiment [1] addresses human Vasoactive Intestinal Peptide Receptor 2 (VPAC2) (human) (UniProt P41587).
Experiment [2] addresses human Vasoactive Intestinal Peptide Receptor 1 (VPAC1) (human) (UniProt P32241).
Experiment [3] deals with T1, human Vasoactive Intestinal Peptide Receptor 1 (VPAC1) (human, UniProt P32241 31-457).
T1 sequence (looked up): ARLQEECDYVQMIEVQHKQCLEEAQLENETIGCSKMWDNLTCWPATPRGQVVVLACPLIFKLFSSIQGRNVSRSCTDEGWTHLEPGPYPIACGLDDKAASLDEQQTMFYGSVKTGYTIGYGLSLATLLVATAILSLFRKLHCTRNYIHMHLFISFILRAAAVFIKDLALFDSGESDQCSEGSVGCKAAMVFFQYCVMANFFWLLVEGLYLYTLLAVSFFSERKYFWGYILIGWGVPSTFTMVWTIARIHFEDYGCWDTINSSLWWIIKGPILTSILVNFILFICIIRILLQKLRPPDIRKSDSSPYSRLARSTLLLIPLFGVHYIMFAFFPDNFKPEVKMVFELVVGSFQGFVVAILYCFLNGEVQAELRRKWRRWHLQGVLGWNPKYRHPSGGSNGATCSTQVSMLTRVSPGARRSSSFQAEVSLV

Chain of human Vasoactive Intestinal Peptide Receptor 2 (VPAC2) (human) (P41587 24-438): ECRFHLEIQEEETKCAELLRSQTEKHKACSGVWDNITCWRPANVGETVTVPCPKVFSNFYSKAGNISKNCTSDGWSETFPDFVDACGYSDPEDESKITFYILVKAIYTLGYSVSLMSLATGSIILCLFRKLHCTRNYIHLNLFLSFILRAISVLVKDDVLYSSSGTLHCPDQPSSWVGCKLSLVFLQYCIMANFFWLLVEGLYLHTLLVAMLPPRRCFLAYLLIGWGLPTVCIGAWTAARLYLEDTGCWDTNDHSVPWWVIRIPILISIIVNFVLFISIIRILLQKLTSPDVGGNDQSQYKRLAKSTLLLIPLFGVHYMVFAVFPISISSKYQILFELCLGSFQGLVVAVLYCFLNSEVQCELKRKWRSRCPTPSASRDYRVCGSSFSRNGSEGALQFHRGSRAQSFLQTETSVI

As to PB1120 (VIP-ELP1-120 fusion peptide), in experiment [1], the activity (cAMP) in CHO cells expressing VPAC2, relative to native VIP (fold less active than native VIP) is 1.5. In addition, the activity (cAMP) in CHO cells expressing VPAC1, relative to native VIP (fold less active than native VIP) in experiment [2] is 1.4.

B1: PB1046 (M-VIP-ELP1-120 fusion protein) (other)
chain: MHSDAVFTDNYTRLRKQMAVKKYLNSILNVPGVGVPGVGVPGGGVPGAGVPGVGVPGVGVPGVGVPGGGVPGAGVPGGGVPGVGVPGVGVPGGGVPGAGVPGVGVPGVGVPGVGVPGGGVPGAGVPGGGVPGVGVPGVGVPGGGVPGAGVPGVGVPGVGVPGVGVPGGGVPGAGVPGGGVPGVGVPGVGVPGGGVPGAGVPGVGVPGVGVPGVGVPGGGVPGAGVPGGGVPGVGVPGVGVPGGGVPGAGVPGVGVPGVGVPGVGVPGGGVPGAGVPGGGVPGVGVPGVGVPGGGVPGAGVPGVGVPGVGVPGVGVPGGGVPGAGVPGGGVPGVGVPGVGVPGGGVPGAGVPGVGVPGVGVPGVGVPGGGVPGAGVPGGGVPGVGVPGVGVPGGGVPGAGVPGVGVPGVGVPGVGVPGGGVPGAGVPGGGVPGVGVPGVGVPGGGVPGAGVPGVGVPGVGVPGVGVPGGGVPGAGVPGGGVPGVGVPGVGVPGGGVPGAGVPGVGVPGVGVPGVGVPGGGVPGAGVPGGGVPGVGVPGVGVPGGGVPGAGVPGVGVPGVGVPGVGVPGGGVPGAGVPGGGVPGVGVPGVGVPGGGVPGAGVPGVGVPGVGVPGVGVPGGGVPGAGVPGGGVPGWP
Consider B1, for which the “activity (cAMP) in CHO cells expressing VPAC1, relative to native VIP” value in experiment [3] was ~11 fold less active than native VIP.
